Literature values, collected in patent US8168409B2, “Compositions and methods relating to anti-IGF-1 receptor antibodies” (Amgen Inc., priority 2004, dated 2012).
pKd: −log10 of the molar value.

Molecular target: IGF-1R (Homo sapiens, UniProt P08069)
Settings: biphasic binding; high affinity component

For “IGF-2: insulin-like growth factor 2, ligand of IGF-1R”, the pKd is given as ~9.70.
